Assay: label from the status in PepcDB records

MARGIWGVDSAQVVTDQLFQCVRTELGYPKFWGRYLSEVPNVSEGLTRDEIVRIRNYGVKVLPIYNAFREAVGYANGQVAARNAVFHARRLGIPKNKLLFANIEDFFAVDAAWIAAWVETLYPTGYRPGLYADPTKGDFAAAYCEAVSRNNQVAVQAVIWSAAPRPGTTKEQKAPRYQPAAPPCSANVWVWQYGRDAEVCPVDTNLADRRLLDFLY
protein production: not failed

MARHLITSALPYINGIKHLGNMVGSMLPADVYSRYLRQRGHDVLYICATDEHGTPAELAAKERGLPVDEFCAQAHDAQKAVYDGFELAFDYFGRSSSEQNREITQHFARRLNENGFIEERAIRQVYSPADGRFLPDRYVEGTCPHCGYDKARGDQCENCTRVLDPTDLINPRSAISGSTDLEVRETKHLFLLQSKLQHEVEEWVARHEEEWPQLASSIARKWLNEGLHDRAITRDLDWGVPVPADTWPELAAEGKVFYVWFDAPIEYIGATKEWSDLDPENRDWKSWWYDADSGENPVRYTEFMAKDNVPFHTVMFPATELGVREPWKKVDYVKAFNWLTYYGGKFSTSQKRGVFTDHALEILPADYWRYFLIANAPESDDSSFTWEHFTATVNKDLADTLGNFVNRVLSFSKKRFGEEVPAGAPAGESETKLGEEIAALLAEYESHMETLQFRKAAAALRALWSAGNSYLEEKAPWLEIKTNPEGAALTLRTAMNLIHLYSVVSEPFIPASSKAMRSAFALSEDTATWVTQDEAKSLDSVPAGTPFTVPPVLFAKITDEDLESYKERFGGAPE
protein production: failed

MARIKLDFPDTAFTFETRLPVRITDINGANHLGNDALISMLSEARAQFLVEHGIEEAGHDGVGIIVTDLATMYQGESFYPDMLRFEVGLMDFNKYGGDFVFRVTKADSGQPVALAKYGFVFFNYQSREVTPMPESFRARFA
protein production: failed

MARKKITLVGAGNIGGTLAHLALIKQLGDVVLFDIAQGMPNGKALDLLQTCPIEGVDFKVRGTNDYKDLENSDVVIVTAGVPRKPGMSRDDLLGINIKVMQTVGEGIKHNCPNAFVICITNPLDIMVNMLQKFSGVPDNKIVGMAGVLDSARFRTFLADELNVSVQQVQAYVMGGHGDTMVPLTKMSNVAGVSLEQLVKEGKLKQERLDAIVSRTRSGGGEIVALLKTGSAYYAPAAAGIQMAESFLKDKKMILPCAAKVKAGMYGLDEDLFVGVPTEISANGVRPIEVEISDKEREQLQVSINAIKDLNKAAAEILAK
protein production: not failed

MARKNQKAPWEPEEEIIWVSKSEMKRDMEELQKLGEELVGLKPAVLEKFPLSEDLREAIADAQRFKNEARRRQLQRIGKLMRYEDPEPIQAALDKVRNKHSQATAALHKLEMLRDRVVEEGDKAIDDVMELYPEADRQRLRQLARQAAKEKKAGKPAKSYREIFQILKALNEEE
protein production: not failed

MARKTAQSKRGVFNMDRLTSMAVFVKAVDLGSFAAAAEALGLSGPMVGKHVRSLEDRLGVQLINRTTRRQSLTEFGYVYYERCRVVLAEAQAADALASDQLSEPRGKLRVTMPVHFGRHCVTPVLLELARKYPALELDLSFNDRIIDLAEDGFDLSIRTGVLEDRAGLIARRVARQPMIVCASPSYLESHGCPEAPEDLAQHAAVVYRRSGPVSPWLFPRPGQSSSEVTPLHRFRLDDLDAIADAAARGLGLAWLPYWLVRGRIEAGTLVRLLPEQPPFLYDCHAVWLQTPHLPLKVRVAVDALAAQLPSFMT
protein production: failed

Reference: a protein production outcome set (Wang et al. 2014)
